Results from patent US20220033484A1 (FAPON BIOTECH, published 2022).

Experiments:
[1] = target: T1, cTnI quality control product recombinant protein (human, UniProt P19429 2-210, limits assumed); assay: sandwich ELISA, antibody 0.457 ng/ml on anti-mouse IgG, cTnI 0.15 ug/ml, HRP second mAb
T1 construct: treated as the same molecule; also called cTnI antigen; cardiac troponin I
Method: (§1) After mutation, the antibody activity is detected. 1 μg/ml of goat anti-mouse IgG is diluted with coating solution to coat a microwell plate, 100 μL per well, and overnight at 4 DEG C.; on the next day, it is washed twice with washing solution, and patted dry; blocking solution (20% BSA+80% PBS) is added, 120 μL per well, 37 DEG C., and 1 h, and patted dry; a diluted cTnI monoclonal antibody is added, 100 μL/well, 37 DEG C., and 60 min; liquid in the plate is shaken off, patted dry, and 20% of mouse negative blood is added for blocking, 120 μl per well, 37 DEG C., 1 h; liquid in the plate is shaken off, patted dry, a diluted cTnI antigen (0.15 μg/ml) is added, 100 μL per well, 37 DEG C., and 40 min; it is washed for 5 times with the washing solution, and patted dry; another strain of the cTnI monoclonal antibody (1:5K) labeled with HRP is added, 100 μL per well, 37 DEG C., and 30 min; color developing solution A (50 μL/well) is added, color developing solution B (50 μL/well) is added, 10 min; stop solution is added, 50 μL/well; and a OD value is read at 450 nm (refer to 630 nm) on a microplate reader.

[2] = target: T1, cTnI quality control product …; assay: AMC sensor, antibody immobilised, cTnI in solution
Method: Operating process: it is equilibrated in Buffer 1 (PBST) for 60 s, the antibody is immobilized in an antibody solution for 300 s, incubated in Buffer 2 (PBST) for 180 s, bound in antigen solution for 420 s, dissociated in the Buffer 2 for 1200 s, 10 mM of GLY solution with pH 1.69 and Buffer 3 are used for sensor regeneration, and data is output. KD represents an equilibrium dissociation constant, namely the affinity; Kon represents a binding rate; and Kd is represents a dissociation rate.

[3] = target: T1, cTnI quality control product …; assay: sandwich ELISA, antibody 1.372 ng/ml on anti-mouse IgG, cTnI 0.15 ug/ml, HRP second mAb
Method: as §1

[4] = target: T1, cTnI quality control product …; assay: sandwich ELISA, antibody 0.000 ng/ml (blank of this series), cTnI 0.15 ug/ml, HRP second mAb
Method: as §1

[5] = target: T1, cTnI quality control product …; assay: sandwich ELISA, antibody 37.037 ng/ml on anti-mouse IgG, cTnI 0.15 ug/ml, HRP second mAb
Method: as §1

[6] = target: T1, cTnI quality control product …; assay: sandwich ELISA, antibody 12.346 ng/ml on anti-mouse IgG, cTnI 0.15 ug/ml, HRP second mAb
Method: as §1

[7] = target: T1, cTnI quality control product …; assay: sandwich ELISA, antibody 4.115 ng/ml on anti-mouse IgG, cTnI 0.15 ug/ml, HRP second mAb
Method: as §1

T1 sequence (P19429 2-210 limits assumed): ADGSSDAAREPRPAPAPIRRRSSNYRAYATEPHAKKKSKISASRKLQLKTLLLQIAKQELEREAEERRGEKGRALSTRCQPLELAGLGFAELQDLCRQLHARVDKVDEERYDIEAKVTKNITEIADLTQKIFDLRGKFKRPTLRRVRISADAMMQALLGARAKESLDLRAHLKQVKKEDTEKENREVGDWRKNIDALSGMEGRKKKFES

| Binder | OD450 (ref. 630 nm) [1] [OD] | Kd [2] [nM] | koff [2] [s⁻¹] | kon [2] [M⁻¹ s⁻¹] | OD450 (ref. 630 nm) [3] [OD] | OD450 (ref. 630 nm) [4] [OD] | OD450 (ref. 630 nm) [5] [OD] | OD450 (ref. 630 nm) [6] [OD] | OD450 (ref. 630 nm) [7] [OD] |
| --- | --- | --- | --- | --- | --- | --- | --- | --- | --- |
| Anti-cTnI-21C5 monoclonal antibody (recombinant) (antibody, mouse IgG2b, V domains shown, also called WT; Sample 1) VH: EVQLQQSGPELVKPGASVKMSCKASGYSFTLYVVHWVKQKPGQGLEWIGYIQPYLDGTRYNEKFKGKATLTVDKSSSTAFMELSSLTSEDSAVYYCARTGYGGYGLAWLAYWGQGTLVTVSA VL: QAVVIQESALTTSPGETVTLTCRSSSGAATTSQYANWVQEKPDHLFTGLIGGSNNRAPGVPARFSGSLIGDKAALTITGAQTEDEAIYFCAIVYSNHWVFGGGTKLTVLG | 0.365 | 70.9 | 0.0034 | 48000 | 0.612 | 0.13 | 2.16 | 1.97 | 1.19 |
| Mutation 1 (antibody, V domains shown, CDR mutant of WT) VH: EVQLQQSGPELVKPGASVKMSCKASGYTFTLYVVHWVKQKPGQGLEWIGYIQPYLDGTKYNEKFKGKATLTVDKSSSTAFMELSSLTSEDSAVYYCARSGYGGYGLAWLAYWGQGTLVTVSA VL: QAVVIQESALTTSPGETVTLTCRSSTGAATTSQYANWVQEKPDHLFTGLIGGSNNRAPGVPARFSGSLIGDKAALTITGAQTEDEAIYFCALVYSNHWVFGGGTKLTVLG | 0.524 | 4.2 | 0.000214 | 51000 | 0.94 | 0.114 | 2.33 | 2.24 | 1.89 |

Now from value to binder:

| OD450 (ref. 630 nm) [1] [OD] | Kd [2] [nM] | koff [2] [s⁻¹] | kon [2] [M⁻¹ s⁻¹] | OD450 (ref. 630 nm) [3] [OD] | OD450 (ref. 630 nm) [4] [OD] | OD450 (ref. 630 nm) [5] [OD] | OD450 (ref. 630 nm) [6] [OD] | OD450 (ref. 630 nm) [7] [OD] | Binder |
| --- | --- | --- | --- | --- | --- | --- | --- | --- | --- |
| 0.211 | – | – | – | 0.421 | 0.117 | 2.1 | 1.94 | 1.51 | Mutation 2 (antibody, V domains shown, Built as m3, with this row's residues) VH: EVQLQQSGPELVKPGASVKMSCKASGYSFTLYVVHWVKQKPGQGLEWIGYIQPYLDGTKYNEKFKGKATLTVDKSSSTAFMELSSLTSEDSAVYYCARSGYGGYGLAWLAYWGQGTLVTVSA VL: QAVVIQESALTTSPGETVTLTCRSSTGAATTSQYANWVQEKPDHLFTGLIGGSNNRVPGVPARFSGSLIGDKAALTITGAQTEDEAIYFCAIVYSNHWVFGGGTKLTVLG |
| – | – | – | – | 0.15 | – | 1.58 | 0.824 | 0.347 | Mutation 3 (antibody, V domains shown, Built as m3, with this row's residues) VH: EVQLQQSGPELVKPGASVKMSCKASGYTFTLYVVHWVKQKPGQGLEWIGYIQPYLDGTHYNEKFKGKATLTVDKSSSTAFMELSSLTSEDSAVYYCARSGYGGYGLAWLAYWGQGTLVTVSA VL: QAVVIQESALTTSPGETVTLTCRSSSGAATTSQYANWVQEKPDHLFTGLIGGSNNRIPGVPARFSGSLIGDKAALTITGAQTEDEAIYFCAAVYSNHWVFGGGTKLTVLG |
